Measured values as given in paper PMC9452303.

What was measured:
[1] = target: CsuA/B (wild type, co-expressed with the CsuC chaperone) (Acinetobacter baumannii); experiment: pull-down
[2] = target: CsuA/B, major subunit of the Csu pilus rod (wild type, in Csu pili) (Acinetobacter baumannii); experiment: optical tweezers force spectroscopy; single pili on E. coli cells mounted on a bead, polystyrene probe bead; extension at a constant speed of 50 nm/s; force of region II (clinch opening)
[3] = target: CsuA/B Val2Ala (in Csu pili) (Acinetobacter baumannii); experiment: as above
FimD (Escherichia coli) = FimD (Escherichia coli) (UniProt P30130); conditions: cited from earlier work
[4] = target: FimD NTD (Escherichia coli) (UniProt P30130); conditions: cited from earlier work
[5] = target: CsuA/B Arg104Cys (in Csu pili) (Acinetobacter baumannii); experiment: optical tweezers force spectroscopy; single pili on E. coli cells mounted on a bead, polystyrene probe bead; extension at a constant speed of 50 nm/s; force of region II (clinch opening)

**Q.** For “CsuA/B (wild type, co-expressed with the CsuC chaperone) (natural protein)”, which stoichiometry N [1] is on record?
**A.** 1 to 8

**Q.** For “CsuA/B, major subunit of the Csu pilus rod (wild type, in Csu pili) (natural protein)”, which clinch opening force [2] is on record?
**A.** 23 pN

**Q.** For “CsuA/B Val2Ala (in Csu pili) (natural protein)”, which clinch opening force [3] is on record?
**A.** 15 pN

**Q.** Which Kd (FimD (Escherichia coli)) does the source give for FimC-FimH complex (from UniProt P31697) here?
**A.** 0.0125 µM

**Q.** And the Kd [4]?
**A.** 0.96 µM

**Q.** With “CsuA/B Arg104Cys (in Csu pili) (natural protein)” as the substance, how does the clinch opening force [5] read?
**A.** 19.8 pN
